Reference: patent US5310665A, “Glucose isomerases having altered substrate specificity” (Gist-brocades, N.V., priority 1990, dated 1994)

What was measured:
[1] = system: O=C[C@H](O)[C@@H](O)[C@H](O)CO; assay: purified protein, by the assay type; settings: pH 7.5
[2] = system: T1, O=C[C@H](O)[C@@H](O)[C@H](O)CO; assay: purified protein, by the assay type; assay type: biochemical, Actinoplanes missouriensis; settings: other: xylose, 35° C., 10 mM Mg2+, pH 7.5
T1 construct: made in house; host or cells: E. coli K514
Description: Alternatively, the D-fructose produced during the isomerization reaction can be determined enzymatically using sorbitol dehydrogenase and NADH.
As a measure of specificity the quotient is Vmax /Km is sometimes used (Wells et al., ibid). […] These temperatures are chosen for practical reasons.
Activities were measured on purified enzyme. The coupled sorbitol dehydrogenase assay was used for xylose, the cysteine-carbazole or discontinuous sorbitol dehydrogenase method was used for glucose.

Chain of Actinoplanes missouriensis glucose isomerase, wild type, SEQ ID NO: 1 (Actinoplanes missouriensis 431) (chain, as listed by the source): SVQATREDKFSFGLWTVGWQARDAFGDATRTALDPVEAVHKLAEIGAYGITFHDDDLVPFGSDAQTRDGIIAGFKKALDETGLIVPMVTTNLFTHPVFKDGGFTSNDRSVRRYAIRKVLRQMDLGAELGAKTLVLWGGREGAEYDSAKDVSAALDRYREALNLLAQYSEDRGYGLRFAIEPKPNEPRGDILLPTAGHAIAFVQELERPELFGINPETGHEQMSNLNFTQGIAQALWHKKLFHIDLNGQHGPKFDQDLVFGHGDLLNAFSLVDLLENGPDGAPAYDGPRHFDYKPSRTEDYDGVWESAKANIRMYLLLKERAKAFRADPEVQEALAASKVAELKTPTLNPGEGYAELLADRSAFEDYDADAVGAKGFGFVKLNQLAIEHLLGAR
Chain of Actinoplanes missouriensis glucose isomerase variant A25K (Actinoplanes missouriensis 431; A25K) (chain, as listed by the source A25K A25K): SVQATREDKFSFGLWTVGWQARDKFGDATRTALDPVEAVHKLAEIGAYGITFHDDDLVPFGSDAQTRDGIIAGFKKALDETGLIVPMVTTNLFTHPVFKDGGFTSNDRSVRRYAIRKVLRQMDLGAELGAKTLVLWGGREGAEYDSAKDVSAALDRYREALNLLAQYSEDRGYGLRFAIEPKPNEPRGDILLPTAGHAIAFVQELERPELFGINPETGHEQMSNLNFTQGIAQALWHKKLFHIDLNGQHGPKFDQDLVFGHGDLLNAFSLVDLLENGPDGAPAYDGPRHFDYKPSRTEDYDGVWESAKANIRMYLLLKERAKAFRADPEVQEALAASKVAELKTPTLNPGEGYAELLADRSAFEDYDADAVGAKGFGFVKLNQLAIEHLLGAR
Chain of Actinoplanes missouriensis glucose isomerase variant V135Q (Actinoplanes missouriensis 431; V135Q) (chain, as listed by the source V135Q V135Q): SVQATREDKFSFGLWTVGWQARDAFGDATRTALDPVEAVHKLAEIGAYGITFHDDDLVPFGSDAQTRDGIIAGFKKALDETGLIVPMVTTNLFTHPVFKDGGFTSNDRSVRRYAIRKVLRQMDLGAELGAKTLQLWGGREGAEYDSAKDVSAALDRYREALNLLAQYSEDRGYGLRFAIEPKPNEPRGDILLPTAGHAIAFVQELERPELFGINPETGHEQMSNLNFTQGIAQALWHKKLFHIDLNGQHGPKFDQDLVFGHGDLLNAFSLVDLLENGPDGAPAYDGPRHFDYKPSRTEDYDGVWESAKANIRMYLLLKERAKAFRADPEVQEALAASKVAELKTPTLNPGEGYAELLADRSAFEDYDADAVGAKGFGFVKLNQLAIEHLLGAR
Chain of Actinoplanes missouriensis glucose isomerase variant M88S (Actinoplanes missouriensis 431; M88S) (chain, as listed by the source M88S M88S): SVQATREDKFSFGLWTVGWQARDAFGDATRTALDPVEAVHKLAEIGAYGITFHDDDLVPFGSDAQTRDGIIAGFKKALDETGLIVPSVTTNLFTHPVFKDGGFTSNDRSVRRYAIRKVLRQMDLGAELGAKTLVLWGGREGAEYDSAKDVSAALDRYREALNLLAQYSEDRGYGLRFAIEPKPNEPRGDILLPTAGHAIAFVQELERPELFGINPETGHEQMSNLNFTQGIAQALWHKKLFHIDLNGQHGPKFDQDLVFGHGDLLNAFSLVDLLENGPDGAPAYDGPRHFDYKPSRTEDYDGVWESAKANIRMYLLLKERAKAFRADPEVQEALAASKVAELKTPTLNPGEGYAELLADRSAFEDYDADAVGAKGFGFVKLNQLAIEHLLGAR
Chain of Actinoplanes missouriensis glucose isomerase variant T90S (Actinoplanes missouriensis 431; T90S) (chain, as listed by the source T90S T90S): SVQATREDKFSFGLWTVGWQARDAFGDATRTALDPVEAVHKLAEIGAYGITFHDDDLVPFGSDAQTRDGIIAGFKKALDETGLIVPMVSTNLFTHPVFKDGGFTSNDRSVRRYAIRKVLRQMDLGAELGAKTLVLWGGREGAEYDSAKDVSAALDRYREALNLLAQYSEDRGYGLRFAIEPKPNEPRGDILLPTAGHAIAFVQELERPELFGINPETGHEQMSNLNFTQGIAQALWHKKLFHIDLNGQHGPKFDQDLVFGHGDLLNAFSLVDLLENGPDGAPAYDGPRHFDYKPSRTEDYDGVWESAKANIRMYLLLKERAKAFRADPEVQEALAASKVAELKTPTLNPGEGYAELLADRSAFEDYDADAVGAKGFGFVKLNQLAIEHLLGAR
Chain of Actinoplanes missouriensis glucose isomerase variant H290N (Actinoplanes missouriensis 431; H290N) (chain, as listed by the source H290N H290N): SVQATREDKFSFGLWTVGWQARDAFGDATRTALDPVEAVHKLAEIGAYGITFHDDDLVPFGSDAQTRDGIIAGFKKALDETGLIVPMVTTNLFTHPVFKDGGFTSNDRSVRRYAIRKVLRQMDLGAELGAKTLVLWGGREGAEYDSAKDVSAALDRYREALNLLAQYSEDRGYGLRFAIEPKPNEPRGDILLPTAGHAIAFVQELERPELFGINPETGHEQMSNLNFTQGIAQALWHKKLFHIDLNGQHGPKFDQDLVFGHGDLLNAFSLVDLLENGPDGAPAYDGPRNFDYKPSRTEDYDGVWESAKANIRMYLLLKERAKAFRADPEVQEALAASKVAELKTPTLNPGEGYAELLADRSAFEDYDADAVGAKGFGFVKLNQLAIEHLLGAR
Chain of Actinoplanes missouriensis glucose isomerase variant M88SH243N (M88S/H243N) (Actinoplanes missouriensis 431; H243N/M88S) (chain, as listed by the source M88S H243N H243N M88S): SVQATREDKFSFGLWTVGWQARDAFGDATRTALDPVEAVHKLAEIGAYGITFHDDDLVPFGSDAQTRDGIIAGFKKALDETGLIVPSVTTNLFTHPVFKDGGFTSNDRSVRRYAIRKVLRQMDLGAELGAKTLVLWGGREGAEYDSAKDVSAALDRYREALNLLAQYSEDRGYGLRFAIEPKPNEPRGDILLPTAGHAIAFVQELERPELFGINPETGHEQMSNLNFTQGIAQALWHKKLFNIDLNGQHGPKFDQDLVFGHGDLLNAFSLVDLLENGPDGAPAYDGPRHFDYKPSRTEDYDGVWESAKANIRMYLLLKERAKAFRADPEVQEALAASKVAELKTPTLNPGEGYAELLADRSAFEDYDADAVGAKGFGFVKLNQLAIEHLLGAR
Chain of Actinoplanes missouriensis glucose isomerase variant M88SH290N (M88S/H290N) (Actinoplanes missouriensis 431; H290N/M88S) (chain, as listed by the source M88S H290N H290N M88S): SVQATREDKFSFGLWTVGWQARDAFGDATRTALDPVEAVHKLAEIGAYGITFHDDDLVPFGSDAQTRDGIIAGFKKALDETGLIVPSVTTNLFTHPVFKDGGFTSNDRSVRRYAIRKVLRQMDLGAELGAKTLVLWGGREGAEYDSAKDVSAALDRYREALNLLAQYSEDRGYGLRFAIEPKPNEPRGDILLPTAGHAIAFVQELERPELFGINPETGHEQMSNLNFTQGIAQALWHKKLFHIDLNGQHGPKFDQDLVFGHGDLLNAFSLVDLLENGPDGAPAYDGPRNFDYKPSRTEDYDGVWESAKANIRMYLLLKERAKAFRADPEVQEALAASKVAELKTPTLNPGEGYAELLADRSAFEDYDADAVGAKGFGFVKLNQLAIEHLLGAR

Substance | Km [2] [mM] | further results
Actinoplanes missouriensis glucose isomerase, wild type, SEQ ID NO: 1 (Actinoplanes missouriensis 431) | – | Km ([1]; other: 35° C., 1 mM Mn): 13.2 mM; Vmax ([1]; other: 35° C., 1 mM Mn): 8.6 µmol/min/mg; Km ([1]; other: xylose, 35° C., 10 mM Mg2+): 4.8 mM
Actinoplanes missouriensis glucose isomerase variant M88S (Actinoplanes missouriensis 431; M88S) | 7.6 | –
Actinoplanes missouriensis glucose isomerase variant A25K (Actinoplanes missouriensis 431; A25K) | 2.73 | –
Actinoplanes missouriensis glucose isomerase variant M88SH290N (M88S/H290N) (Actinoplanes missouriensis 431; H290N/M88S) | 14.8 | –
Actinoplanes missouriensis glucose isomerase variant M88SH243N (M88S/H243N) (Actinoplanes missouriensis 431; H243N/M88S) | 11.9 | –
Actinoplanes missouriensis glucose isomerase variant V135Q (Actinoplanes missouriensis 431; V135Q) | 56 | –
Actinoplanes missouriensis glucose isomerase variant T90S (Actinoplanes missouriensis 431; T90S) | 16.8 | –
Actinoplanes missouriensis glucose isomerase variant H290N (Actinoplanes missouriensis 431; H290N) | 9.7 | –
